For series [1] the following is noted: at the highest concentration required to inhibit bacterial growth; cited from earlier work. From the text:
Microcins are antimicrobial peptides synthesized by ribosomes and are produced by some Enterobacteriaceae species under the condition of nutrient depletion to kill or inhibit neighboring competitors ([1], [2]). Microcins are divided into two categories, namely, class I and class II, according to their molecular masses. Class I microcins have mass less than 5 kDa, while that of class II microcins is between 5 and 10 kDa ([1]). Microcin J25 (MccJ25) is a class I microcin with a unique lasso-like structure ([3][–][5]) that inhibits or kills target bacteria (primarily Gram-negative Enterobacteriac ...

Series [2] concerns proteases (including peptidases). The settings on record: cited from earlier work. The text has this:
Peptidases are important tools in the growth and metabolism of various organisms, including B. subtilis, and they are classified as exopeptidases and endopeptidases depending on the position of peptide bond cleavage ([22]). Different classes of peptidases are associated with important biological pathways. Based on similarity, PepA (yuiE) is predicted to be an aminopeptidase in B. subtilis, but its exact function has not been studied. In E. coli, PepA is a well-defined leucyl aminopeptidase with cysteinyl–glycinase activity, which involves glutathione turnover ([23]). Since glutathione is absen ...

A further series concerns the target PepA (Bacillus subtilis, UniProt O32106). The settings on record: 8 hours at 37°C, data not shown. As to the method: (§1) To examine the degradation effect of these three peptidases on the lasso peptide MccJ25, we performed the enzymatic (proteolytic treatment) reaction of MccJ25 with each peptidase enzyme for 8 hours at 37°C and measured the antibacterial activity and concentration of MccJ25 in the incubation products.
(§2) To investigate whether B. subtilis peptidases play an inhibitory role in the maturation of MccJ25, we synthesized a linear peptide chain consisting of 21 amino acid residues for mimicking the MccJ25 precursor peptide. The linear peptide was incubated with PepA, PepF, and PepT, and the effects of degradation of these three peptidases on the MccJ25 precursor peptide were determined.
(§3) The MccJ25 lasso peptide was obtained by a reverse-phase solid-phase extraction method, as described in previous studies ([15]). The MccJ25 lasso peptide was examined by antimicrobial activity analysis and UPLC-QqQ mass spectrometry analysis. The antibacterial activity analysis method and UPLC-QqQ mass spectrometry analysis process for MccJ25 have been described in detail in our previous articles ([21]). […] Quantitative analysis of the MccJ25 linear/lasso peptide was performed by ultra-performance liquid chromatography coupled with triple quadrupole mass spectrometry (UPLC-QqQ, Agilent Co., USA) in the positive ion mode. All original images of SDS-PAGE and spot-on-lawn were cropped and brightness adjusted using Fireworks software (Vesion CS 6, Adobe Systems Incorporated).
(§4) The strains BL21A (BL21-DE3, pET28a-PepA), BL21F (BL21-DE3, pET28a-PepF), and BL21T (BL21-DE3, pET28a-PepT) were used to produce the peptidases PepA, PepF, and PepT, respectively, and BL21O (BL21-DE3, pET28a+) was used as a control strain. […] L-leucine-p-nitroanilide was used as the standard chromogenic substrate for aminopeptidases to identify whether these three peptidases are aminopeptidases in B. subtilis. The mixture of peptidase (10%) and L-leucine-p- nitroanilide (1 mM) was reacted in Tris-HCl buffer solution at pH = 8.5 and 50°C for 10 minutes.

A further series concerns the target T1, PepF (Bacillus subtilis, UniProt O31605).
T1 sequence (O31605 whole entry, looked up): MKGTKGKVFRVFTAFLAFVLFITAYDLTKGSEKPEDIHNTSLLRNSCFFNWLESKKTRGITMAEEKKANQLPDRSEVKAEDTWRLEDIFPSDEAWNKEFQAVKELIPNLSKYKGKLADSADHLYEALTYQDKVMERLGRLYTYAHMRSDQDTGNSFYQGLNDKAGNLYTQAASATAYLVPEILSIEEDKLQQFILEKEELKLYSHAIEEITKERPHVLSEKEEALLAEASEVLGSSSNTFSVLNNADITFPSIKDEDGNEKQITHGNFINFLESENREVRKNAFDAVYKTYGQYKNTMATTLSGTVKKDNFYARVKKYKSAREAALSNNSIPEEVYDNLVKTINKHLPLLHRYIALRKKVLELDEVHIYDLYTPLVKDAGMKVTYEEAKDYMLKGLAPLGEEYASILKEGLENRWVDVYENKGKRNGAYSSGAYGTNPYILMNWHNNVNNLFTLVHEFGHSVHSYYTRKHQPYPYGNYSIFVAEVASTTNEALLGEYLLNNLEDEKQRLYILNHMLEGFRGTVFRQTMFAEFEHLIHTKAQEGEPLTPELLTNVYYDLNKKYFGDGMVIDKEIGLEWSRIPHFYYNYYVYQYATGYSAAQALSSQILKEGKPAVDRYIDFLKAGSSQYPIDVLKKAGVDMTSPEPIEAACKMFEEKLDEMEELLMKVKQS
The settings on record: mature lasso peptide incubated with purified PepF 8 hours at 37°C, compared with non-peptidase-treated. The method, then: as §1, §2, §3, §4

For the next series, the target named is PepT (Bacillus subtilis, UniProt P55179). The settings on record: 8 hours at 37°C, data not shown. As to the method:
as §1, §2, §3, §4

The mark [3] stands for this setting: spot-on-lawn assay, S. enteritidis CVCC3377.

Results on 1 substance are retold here after PMC11218540, “Influence of PepF peptidase and sporulation on microcin J25 production in Bacillus subtilis” (Microbiology Spectrum, 2024).

Bridges are numbered along the chain shown (N, C = ends). Where no end group is shown, it is not given here.

Chain of PepT (P55179 whole entry): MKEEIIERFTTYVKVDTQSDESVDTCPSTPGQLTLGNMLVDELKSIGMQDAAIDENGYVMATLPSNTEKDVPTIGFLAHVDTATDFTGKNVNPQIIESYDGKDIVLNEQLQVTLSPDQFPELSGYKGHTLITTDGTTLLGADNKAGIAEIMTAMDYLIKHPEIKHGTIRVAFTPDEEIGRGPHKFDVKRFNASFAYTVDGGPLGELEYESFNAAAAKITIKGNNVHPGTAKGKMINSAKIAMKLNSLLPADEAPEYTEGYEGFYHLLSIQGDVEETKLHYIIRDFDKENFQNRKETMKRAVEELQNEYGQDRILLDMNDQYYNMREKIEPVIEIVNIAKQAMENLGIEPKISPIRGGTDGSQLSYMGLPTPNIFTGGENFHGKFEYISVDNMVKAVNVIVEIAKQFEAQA
Chain of PepA (O32106 whole entry): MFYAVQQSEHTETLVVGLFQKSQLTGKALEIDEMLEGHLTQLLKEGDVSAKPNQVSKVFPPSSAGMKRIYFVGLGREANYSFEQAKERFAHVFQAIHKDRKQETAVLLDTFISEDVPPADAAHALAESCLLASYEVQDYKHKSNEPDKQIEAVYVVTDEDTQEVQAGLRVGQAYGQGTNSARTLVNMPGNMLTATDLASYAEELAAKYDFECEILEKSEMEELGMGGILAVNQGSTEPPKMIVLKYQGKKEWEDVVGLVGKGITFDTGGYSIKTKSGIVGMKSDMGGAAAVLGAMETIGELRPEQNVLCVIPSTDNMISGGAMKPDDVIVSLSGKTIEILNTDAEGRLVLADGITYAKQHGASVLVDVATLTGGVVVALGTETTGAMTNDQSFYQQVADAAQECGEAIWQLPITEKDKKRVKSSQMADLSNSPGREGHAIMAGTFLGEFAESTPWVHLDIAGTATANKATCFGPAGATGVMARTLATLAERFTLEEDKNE

As to “microcin J25 (GGAGHVPEYFVGIGTPISFYG; lactam N-8 (inferred); UniProt Q9X2V7 38-58, looked up) [MccJ25]”, in series [1], the toxicity and hemolysis entry is “neither toxic nor hemolytic”. For the same substance, the “resistance to proteases (including peptidases)” value in series [2] was “high resistance”. Further, the “concentration of mature MccJ25 after treatment with PepA” value with PepA (UPLC-QqQ-MS) is recorded as “remained unchanged”. The “antibacterial activity of mature MccJ25 after treatment with PepA” value with PepA (setting [3]) is “remained unchanged”. The “concentration of MccJ25 after treatment with PepF” value in the series with PepF (UPLC-QqQ-MS) was “unchanged”. Further, the “antibacterial activity of MccJ25 after treatment with PepF” value with PepF (spot-on-lawn assay, indicator S. enteritidis CVCC3377) is reported as “unchanged”. Further, the “concentration of mature MccJ25 after treatment with PepT” value in the series with PepT (UPLC-QqQ-MS) is listed as “remained unchanged”. Besides, the “antibacterial activity of mature MccJ25 after treatment with PepT” value with PepT (setting [3]) is recorded as “remained unchanged”.
